The text below walks through data of PMC3701042, “Structural Studies of a Bacterial tRNA^HIS Guanylyltransferase (Thg1)-Like Protein, with Nucleotide in the Activation and Nucleotidyl Transfer Sites” (PLoS ONE, 2013).

The target in assay [1] is Bacillus thuringiensis tRNA^His guanylyltransferase (Thg1)-like protein (TLP) (Bacillus thuringiensis). Description: crystal structure; BtTLP co-crystallised with ~2 mM GTP; tetragonal crystals, space group P4_(1), 2.96 Å; four monomers per asymmetric unit.
Assay [2] has the same target. The assay can be described thus: crystal structure; BtTLP co-crystallised with ~1 mM ATP; orthorhombic crystals, space group C222_(1), 2.35 Å; four molecules per asymmetric unit (two dimers).

In the case of “Bacillus thuringiensis tRNA^His guanylyltransferase (Thg1)-like protein (TLP) (enzyme)”, the stoichiometry N in assay [1] and in assay [2] was 4 each time.

Broadly, the stoichiometry N is the number of molecules, sites or subunits per partner or assembly.
